Experimental data published in paper PMC2583301 (The Journal of Biological Chemistry, 2008).
Where two headings read alike, the source gives them in different places.

B1: yNap1 C200A/C249A/C272A labelled with Alexa dye at Cys-414 (yNap1m*) (natural protein)
chain: MSDPIRTKPKSSMQIDNAPTPHNTPASVLNPSYLKNGNPVRAQAQEQDDKIGTINEEDILANQPLLLQSIQDRLGSLVGQDSGYVGGLPKNVKEKLLSLKTLQSELFEVEKEFQVEMFELENKFLQKYKPIWEQRSRIISGQEQPKPEQIAKGQEIVESLNETELLVDEEEKAQNDSEEEQVKGIPSFWLTALENLPIVADTITDRDAEVLEYLQDIGLEYLTDGRPGFKLLFRFDSSANPFFTNDILAKTYFYQKELGYSGDFIYDHAEGAEISWKDNAHNVTVDLEMRKQRNKTTKQVRTIEKITPIESFFNFFDPPKIQNEDQDEELEEDLEERLALDYSIGEQLKDKLIPRAVDWFTGAALEFEFEEDEEEADEDEDEEEDDDHGLEDDDGESAEEQDDFAGRPEQAPECKQS
modifications: Alexa-546 or Alexa-488 on Cys-414
B2: yeast nucleosome assembly protein 1 (yNap1), wild type (natural protein)
chain: MSDPIRTKPKSSMQIDNAPTPHNTPASVLNPSYLKNGNPVRAQAQEQDDKIGTINEEDILANQPLLLQSIQDRLGSLVGQDSGYVGGLPKNVKEKLLSLKTLQSELFEVEKEFQVEMFELENKFLQKYKPIWEQRSRIISGQEQPKPEQIAKGQEIVESLNETELLVDEEEKAQNDSEEEQVKGIPSFWLTALENLPIVCDTITDRDAEVLEYLQDIGLEYLTDGRPGFKLLFRFDSSANPFFTNDILCKTYFYQKELGYSGDFIYDHAEGCEISWKDNAHNVTVDLEMRKQRNKTTKQVRTIEKITPIESFFNFFDPPKIQNEDQDEELEEDLEERLALDYSIGEQLKDKLIPRAVDWFTGAALEFEFEEDEEEADEDEDEEEDDDHGLEDDDGESAEEQDDFAGRPEQAPECKQS

Columns and labels:
H3 alone = H3 alone (Xenopus laevis, UniProt P84233 1-136); assay: other fluorescence titration
[1] = molecular target: H2A refolded in the absence of H2B (Xenopus laevis, UniProt P06897 1-130); assay: other fluorescence titration
[2] = molecular target: T1, H2A/H2B dimer (major type, wild type) (Xenopus laevis, UniProt P06897;P02281); assay: other fluorescence titration
H2A.Z/H2B dimer = H2A.Z/H2B dimer ( | Xenopus laevis, UniProt P0C0S5;P02281); assay: other fluorescence titration
[3] = molecular target: T1, H2A/H2B dimer (major type, wild type); assay: other fluorescence titration; remark: listed apart in the source
[4] = molecular target: T1, H2A/H2B dimer (major type, wild type); assay: other fluorescence titration; remark: listed apart in the source
[5] = molecular target: T1, H2A/H2B dimer (major type, wild type); assay: other fluorescence titration; remark: listed apart in the source
[6] = molecular target: T1, H2A/H2B dimer (major type, wild type); assay: native gel or EMSA

Binder	Kd (H3 alone) [nM]	Kd [1] [nM]	Kd [2] [nM]	Kd (H2A.Z/H2B dimer) [nM]	Kd [3] [nM]	Kd [4] [nM]	Kd [5] [nM]	binding result [6]
B1	> 10000	3.5	7.8	7.4	21.6	7.8	1.2	–
B2	–	–	–	–	–	–	–	binds
